Experimental data taken from patent publication US20250223359A1.

Biological target: CD3-Fc
Assay: SPR (Biacore T200, 25 C); CD3-Fc captured on anti-hFc IgG1 CM5 chip, antibody injected in 1:2 dilution series; 1:1 binding model

Kd	Binder
16 nM	CD3hi anti-CD3 antibody (antibody, V domains shown) VH: EVQLVESGGGLVQPGGSLKLSCAASGFTFNTYAMNWVRQASGKGLEWVGRIRSKYNNYATYYADSVKDRFTISRDDSKSTLYLQMNSLKTEDTAVYYCVRHGNFGNSYVSWFAYWGQGTLVTVSS VL: QAVVTQEPSLTVSPGGTVTLTCRSSTGAVTTSNYANWVQQKPGQAPRGLIGGTNKRAPWTPARFSGSLLGDKAALTLSGAQPEDEAEYFCALWYSNLWVFGGGTKLTVL
48 nM	CD3lo anti-CD3 antibody (antibody, V domains shown) VH: EVQLVESGGGLVQPGGSLKLSCAASGFTFNTYAMNWVRQASGKGLEWVGRIRSKYNNYATYYADSVKDRFTISRDDSKSTAYLQMNSLKTEDTAVYYCVRHGNFGNSYVSWFAYWGQGTLVTVSS VL: QAVVTQEPSLTVSPGGTVTLTCRSSTGAVTTSNYANWVQQKPGQAPRGLIGGTNKRAPWTPARFSGSLLGDKAALTLSGAQPEDEAEYFCALWYSNLWVFGGGTKLTVL
30 nM	CD3med anti-CD3 antibody (antibody, V domains shown) VH: EVQLVESGGGLVQPGGSLKLSCAASGFTFNTYAMNWVRQASGKGLEWVGRIRSKYNNYATYYADSVKDRFTISRDDSKNTAYLQMNSLKTEDTAVYYCVRHGNFGNSYVSWFAHWGQGTLVTVSS VL: QAVVTQEPSLTVSPGGTVTLTCGSSTGAVTSSNYANWVQQKPGQAPRGLIGGTNKRAPWTPARFSGSLLGGKAALTLSGAQPEDEAEYYCALWYSNLWVFGGGTKLTVL
